The target in experiment [1] is CR8071 lambda light chain (L1) with V133G_S176R, design 2188, System C.
The target is the same in experiment [2]. In words: SMCA, LC-MS.
For experiment [3], the target named is CR8071 lambda light chain (L1) with E124K_Y178R, design 2830, System C.
For experiment [4] the target is unchanged. Nature of the experiment: SMCA, LC-MS.
Experiment [5] addresses CR8071 lambda light chain (L1) with E124R, design 2826. Nature of the experiment: SMCA: co-expression.
For experiment [6] the target is unchanged. In words: SMCA LC-MS, System C.
The target in experiment [7] is CR8071 lambda light chain (L1) with S180E, designs 2816 and 2827. In words: SMCA: H1, L1, H2, L2 co-expressed in CHO-3E7.
The target is the same in experiment [8]. In words: SMCA LC-MS, System C.
The target is the same in experiment [9]. Nature of the experiment: SMCA: co-expression.
The target of experiment [10] is Pertuzumab light chain (kappa) V133G_S176D, HA-tagged. In words: LCCA.
Experiment [11] has the same target. In words: LCCA. The source holds these as a separate data set.
Experiment [12] deals with CAT-2200 light chain (lambda) Y178K, FLAG-tagged. Nature of the experiment: LCCA.
For experiment [13], the target named is CAT-2200 light chain (lambda) V133I_L135R_Y178F, FLAG-tagged. Nature of the experiment: LCCA.
The target in experiment [14] is Pertuzumab light chain (kappa) V133G_S176D, HA-tagged. In words: LCCA. The source holds these as a separate data set.
The target in experiment [15] is CAT-2200 light chain (lambda) V133I_L135K, FLAG-tagged. In words: LCCA.
Experiment [16] addresses SGN-CD19a kappa light chain (L2) with V133G_S176D, design 2188, Systems B and C.
Experiment [17] shares this target. Nature of the experiment: SMCA, LC-MS.
In experiment [18] the target is SGN-CD19a kappa light chain (L2) with T178E_T180E, design 2830, System C.
Experiment [19] shares this target. In words: SMCA, LC-MS.
Experiment [20] has as its target SGN-CD19a kappa light chain (L2) with Q124R_Q160K_T178R, design 2816. Nature of the experiment: SMCA: co-expression.
For experiment [21] the target is unchanged. In words: SMCA LC-MS, System C.
For experiment [22], the target named is SGN-CD19a kappa light chain (L2) with Q124K_T178R, design 2827. In words: SMCA LC-MS, System B.
Experiment [23] shares this target. In words: SMCA LC-MS, System C.
Experiment [24] has as its target SGN-CD19a kappa light chain (L2) with Q124E_Q160E_T180E, design 2826. In words: SMCA LC-MS, System B.
Experiment [25] shares this target. In words: SMCA: co-expression.
Experiment [26] shares this target. Nature of the experiment: SMCA LC-MS, System C.
For experiment [27], the target named is SGN-CD19a kappa light chain (L2) with T178E_T180E, design 2830. Nature of the experiment: SMCA LC-MS, System B.
The target is the same in experiment [28]. Nature of the experiment: SMCA: co-expression.
For experiment [29], the target named is SGN-CD19a kappa light chain L2, design 2816 (Q124R_Q160K_T178R). Nature of the experiment: SMCA, System C, LC-MS.
Experiment [30] shares this target. Nature of the experiment: SMCA, System B.
Experiment [31] shares this target. Nature of the experiment: SMCA, System B, LC-MS.
For experiment [32] the target is unchanged. Nature of the experiment: SMCA, System C.
Experiment [33] concerns the target SGN-CD19a kappa light chain L2, design 2827 (Q124K_T178R). In words: SMCA, System C, LC-MS.
The target is the same in experiment [34]. Nature of the experiment: SMCA, System B.
The target is the same in experiment [35]. Nature of the experiment: SMCA, System B, LC-MS.
Experiment [36] shares this target. Nature of the experiment: SMCA, System C.
Experiment [37] has as its target SGN-CD19a kappa light chain L2, design 2830 (T178E_T180E). In words: SMCA, System B.
For experiment [38] the target is unchanged. Nature of the experiment: SMCA, System B, LC-MS.

Values joined by “and” are separate entries in the source; they are usually repeats but may differ in a detail not shown here. Identical values can stand only once. Like-named read-outs stand apart in the source and are kept apart here.

Regarding “CR8071 full-length IgG1 heavy chain (H1) with L124E, design 2188, System C”, the % H1L1 Pairing in experiment [1] is 24.9%. Besides, the Change in % H1L1 Pairing with respect to wild type in [2] was -23.5%.

Regarding “CR8071 full-length IgG1 heavy chain (H1) with L143E_K145T_Q179E, design 2830, System C”, the % H1L1 Pairing in [3] was 28%. The Change in % H1L1 Pairing with respect to wild type in experiment [4] was -20.4%.

Regarding “CR8071 heavy chain (H1, lambda arm) with L143E_K145T, design 2826, full-length IgG1 with heterodimeric Fc”, in experiment [5], the % H1L1 Pairing was 27.8%. The Change in % H1L1 Pairing with respect to wild type in [6] was -40.3%.

On to “CR8071 heavy chain (H1, lambda arm) with Q179K, design 2816, full-length IgG1 with heterodimeric Fc”, for which the % H1L1 Pairing in experiment [7] is 99.3%. For the same substance, the Change in % H1L1 Pairing with respect to wild type in experiment [8] was 17%.

“CR8071 heavy chain (H1, lambda arm) with S186R, design 2827, full-length IgG1 with heterodimeric Fc”: the % H1L1 Pairing in experiment [9] was determined as 98.2%. In addition, in experiment [8], the Change in % H1L1 Pairing with respect to wild type turned out to be 15.9%.

Turning to “Pertuzumab heavy chain Fab construct L124R”, the H2L2:H2L1 normalized median ratio, H2L2 share stood at 83% in experiment [10], 84% in [11] and 86% in [14]. Also, the H2L2:H2L1 normalized median scalar value ln(r1/f1) in [10] turned out to be 1.56; in experiment [11] it was 1.68; in experiment [14] it was 1.8. The H2L2:H2L1 normalized median ratio (H2L1 share) in experiment [12] is 16%; in [13], 17%; in experiment [15], 14%.

With “SGN-CD19a full-length IgG1 heavy chain (H2) with L124R, design 2188, Systems B and C”, the % H2L2 Pairing in experiment [16] was 92.9% and 99.5%. In addition, the Change in % H2L2 Pairing with respect to wild type in experiment [17] was 38.7% and 19.9%.

“SGN-CD19a full-length IgG1 heavy chain (H2) with S186R, design 2830, System C”: the % H2L2 Pairing in experiment [18] stood at 99.6%. The Change in % H2L2 Pairing with respect to wild type in experiment [19] is 20%.

Consider “SGN-CD19a heavy chain (H2, kappa arm) with L143E_K145T, design 2816, full-length IgG1 with heterodimeric Fc”, for which the % H2L2 Pairing in experiment [20] is 79.7%. In [21], the Change in % H2L2 Pairing with respect to wild type worked out at 19.8%.

Turning to “SGN-CD19a heavy chain (H2, kappa arm) with L143E_K145T_Q179E, design 2827, full-length IgG1 with heterodimeric Fc”, the figures for the Change in % H2L2 Pairing with respect to wild type in [22] and in [23] were -15.3% and 25.1%, respectively.

On to “SGN-CD19a heavy chain (H2, kappa arm) with Q179K, design 2826, full-length IgG1 with heterodimeric Fc”, for which the Change in % H2L2 Pairing with respect to wild type in [24] amounted to 35.5%; in [26], 26.7%. The % H2L2 Pairing in experiment [25] is 89.7% and 98%.

Consider “SGN-CD19a heavy chain (H2, kappa arm) with S186R, design 2830, full-length IgG1 with heterodimeric Fc”, for which, in [27], the Change in % H2L2 Pairing with respect to wild type came to 44.3%. This substance returned a % H2L2 Pairing in experiment [28] of 98.5%.

For the substance “SGN-CD19a heavy chain H2, design 2816 (L143E_K145T)”, the Change in % H2L2 Pairing with respect to wild type in experiment [29] was 19.8%; in experiment [31], -12.5%. For the same substance, the % H2L2 Pairing in [30] is 25.1%; in [32], 79.7%.

“SGN-CD19a heavy chain H2, design 2827 (L143E_K145T_Q179E)”: the Change in % H2L2 Pairing with respect to wild type in [33] was 25.1%; in [35], -15.3%. Besides, the % H2L2 Pairing in experiment [34] turned out to be 22.3%; in experiment [36] it was 85%.

Consider “SGN-CD19a heavy chain H2, design 2830 (S186R)”, for which the % H2L2 Pairing in experiment [37] is 98.5%. Moreover, the Change in % H2L2 Pairing with respect to wild type in [38] is 44.3%.

(Values after patent US20190338048A1.)
